The data set deals with CpxR-R195H (Klebsiella pneumoniae HS11286 (ST11)?). Briefly: ITC. The note with it: EMSA: Beyotime binding buffer (poly(dI-dC), DTT, glycerol, EDTA, NaCl, MgCl2, Tris), room temp, 2 pmol probe; footprinting: 50 mM Tris-HCl pH 8.0, 100 mM KCl …. Background: A gel shift assay detects complexes by their altered migration in electrophoresis.

In turn, PblaKPC (Tn1721, ST11), unlabeled displayed a binding signal (fold lower affinity than wild type) of 100.
